Patent publication US20200024330A1
Positions count from the first letter of the chain named.

Assays:
Experiment in all cases: cell-based or functional assay
[1] = molecular target: HIV-1 JR-CSF Env N302A (HIV-1 JR-CSF) (UniProt P20871)
[2] = molecular target: HIV-1 JR-CSF Env N355A (HIV-1 isolate JR-CSF) (UniProt P20871)
[3] = molecular target: HIV-1 JR-CSF Env N276A (HIV-1 JR-CSF) (UniProt P20871)
[4] = molecular target: HIV-1 JR-CSF Env I415A (HIV-1 (isolate JR-CSF)) (UniProt P20871)
[5] = molecular target: HIV-1 JR-CSF Env S387A (HIV-1 (isolate JR-CSF)) (UniProt P20871)
[6] = molecular target: HIV-1 JR-CSF Env N262A (HIV-1 JR-CSF) (UniProt P20871)
[7] = molecular target: HIV-1 JR-CSF Env Q422A (HIV-1 (isolate JR-CSF)) (UniProt P20871)
[8] = molecular target: HIV-1 JR-CSF Env R350A (HIV-1 isolate JR-CSF) (UniProt P20871)
[9] = molecular target: Env of the clade AG HIV-1 pseudoviruses of the cross-clade 162-pseudovirus panel (n = 10)
[10] = molecular target: HIV-1 JR-CSF Env I307A (HIV-1 JR-CSF) (UniProt P20871)
[11] = molecular target: HIV-1 JR-CSF Env N241A (HIV-1 JR-CSF) (UniProt P20871)
[12] = molecular target: HIV-1 JR-CSF Env K421A (HIV-1 (isolate JR-CSF)) (UniProt P20871)
[13] = molecular target: HIV-1 JR-CSF Env E321aA (HIV-1 isolate JR-CSF) (UniProt P20871)
[14] = molecular target: HIV-1 JR-CSF Env F317A (HIV-1 isolate JR-CSF) (UniProt P20871)
[15] = molecular target: HIV-1 JR-CSF Env I423A (HIV-1 (isolate JR-CSF)) (UniProt P20871)
[16] = molecular target: Env of all HIV-1 pseudoviruses of the cross-clade 162-pseudovirus panel (n = 162)
[17] = molecular target: HIV-1 JR-CSF Env Q337A (HIV-1 isolate JR-CSF) (UniProt P20871)
[18] = molecular target: HIV-1 JR-CSF Env R304A (HIV-1 JR-CSF) (UniProt P20871)
[19] = molecular target: HIV-1 JR-CSF Env H330A (HIV-1 isolate JR-CSF) (UniProt P20871)
[20] = molecular target: Env of the clade D HIV-1 pseudoviruses of the cross-clade 162-pseudovirus panel (n = 25)
[21] = molecular target: HIV-1 JR-CSF Env N386A (HIV-1 isolate JR-CSF) (UniProt P20871)
[22] = molecular target: HIV-1 JR-CSF Env T297A (HIV-1 JR-CSF) (UniProt P20871)
[23] = molecular target: HIV-1 JR-CSF Env V292A (HIV-1 JR-CSF) (UniProt P20871)
[24] = molecular target: HIV-1 JR-CSF Env T319A (HIV-1 isolate JR-CSF) (UniProt P20871)
[25] = molecular target: HIV-1 JR-CSF Env D325A (HIV-1 isolate JR-CSF) (UniProt P20871)
[26] = molecular target: HIV-1 JR-CSF Env R315A (HIV-1 isolate JR-CSF) (UniProt P20871)
[27] = molecular target: HIV-1 Env of isolate MGRM-C-026 (HIV-1)
[28] = molecular target: HIV-1 JR-CSF Env N295A (HIV-1 JR-CSF) (UniProt P20871)
[29] = molecular target: HIV-1 JR-CSF Env F210A (HIV-1 JR-CSF) (UniProt P20871)
[30] = molecular target: Env of the clade C HIV-1 pseudoviruses of the cross-clade 162-pseudovirus panel (n = 27)
[31] = molecular target: HIV-1 JR-CSF Env N392Q (HIV-1 (isolate JR-CSF)) (UniProt P20871)
[32] = molecular target: HIV-1 Env of isolate JR-CSF (HIV-1) (UniProt P20871)
[33] = molecular target: HIV-1 JR-CSF Env R419A (HIV-1 (isolate JR-CSF)) (UniProt P20871)
[34] = molecular target: HIV-1 JR-CSF Env R327A (HIV-1 isolate JR-CSF) (UniProt P20871)
[35] = molecular target: HIV-1 JR-CSF Env I424A (HIV-1 (isolate JR-CSF)) (UniProt P20871)
[36] = molecular target: HIV-1 JR-CSF Env L416A (HIV-1 (isolate JR-CSF)) (UniProt P20871)
[37] = molecular target: HIV-1 JR-CSF Env N332A (HIV-1 isolate JR-CSF) (UniProt P20871)
[38] = molecular target: Env of the clade B HIV-1 pseudoviruses of the cross-clade 162-pseudovirus panel (n = 31)
[39] = molecular target: HIV-1 JR-CSF Env P313A (HIV-1 JR-CSF) (UniProt P20871)

B1: PGT-127 (antibody, V domains shown)
VH: QPQLQESGPGLVEASETLSLTCTVSGDSTGRCNYFWGWVRQPPGKGLEWIGSLSHCRSYYNTDWTYHNPSLKSRLTISLDTPKNQVFLRLTSVTAADTATYYCARFGGEVLVYRDWPKPAWVDLWGRGTLVVTVS
VL: QSALTQPPSASGSPGQSITISCTGTSNNFVSWYQQYPGKAPKLVIYEVNKRPSGVPDRFSGSKSGSTASLTVSGLQADDEGVYYCSSLVGNWDVIFGGGTKLTVL
Fold IC50 increase relative to wild-type [1]: 3 fold
Fold IC50 increase relative to wild-type [2]: 1.4 fold
Fold IC50 increase relative to wild-type [3]: 1.6 fold
Fold IC50 increase relative to wild-type [4]: 2.1 fold
Fold IC50 increase relative to wild-type [5]: 1 fold
Fold IC50 increase relative to wild-type [6]: 1.4 fold
Fold IC50 increase relative to wild-type [7]: 0.1 fold
Fold IC50 increase relative to wild-type [8]: 1.1 fold
Median IC50 against viruses neutralized with an IC50 <50 µg/ml [9]: 0.04 µg/mL
Fold IC50 increase relative to wild-type [10]: 10.2 fold
Fold IC50 increase relative to wild-type [11]: 0.6 fold
Fold IC50 increase relative to wild-type [12]: 1.5 fold
Fold IC50 increase relative to wild-type [13]: 1.9 fold
Fold IC50 increase relative to wild-type [14]: 0.2 fold
Fold IC50 increase relative to wild-type [15]: 0.5 fold
Median IC50 against viruses neutralized with an IC50 <50 µg/ml [16]: 0.08 µg/mL
Fold IC50 increase relative to wild-type [17]: 0.5 fold
Fold IC50 increase relative to wild-type [18]: 0.4 fold
Fold IC50 increase relative to wild-type [19]: 0.5 fold
Median IC50 against viruses neutralized with an IC50 <50 µg/ml [20]: 0.49 µg/mL
Fold IC50 increase relative to wild-type [21]: 0.6 fold
Fold IC50 increase relative to wild-type [22]: 1.7 fold
Fold IC50 increase relative to wild-type [23]: 0.9 fold
Fold IC50 increase relative to wild-type [24]: 1 fold
Fold IC50 increase relative to wild-type [25]: 0.93 fold
Fold IC50 increase relative to wild-type [26]: 0.3 fold
Polyclonal Transfectant Neutralization Index (well 5145 B14) [27]: 2.62
Primary Neutralization Index (B cell culture well 5145 B14) [27]: 86.9
Fold IC50 increase relative to wild-type [28]: 2.3 fold
Fold IC50 increase relative to wild-type [29]: 0.8 fold
Median IC50 against viruses neutralized with an IC50 <50 µg/ml [30]: 0.55 µg/mL
Fold IC50 increase relative to wild-type [31]: 1.1 fold
Polyclonal Transfectant Neutralization Index (well 5145 B14) [32]: 1.61
Primary Neutralization Index (B cell culture well 5145 B14) [32]: 31.1
Fold IC50 increase relative to wild-type [33]: 2.5 fold
Fold IC50 increase relative to wild-type [34]: 1.8 fold
Fold IC50 increase relative to wild-type [35]: 2 fold
Fold IC50 increase relative to wild-type [36]: 1 fold
Fold IC50 increase relative to wild-type [37]: > 100 fold
Median IC50 against viruses neutralized with an IC50 <50 µg/ml [38]: 0.06 µg/mL
Fold IC50 increase relative to wild-type [39]: 1.3 fold

B2: PGT-128 (antibody, V domains shown)
VH: QPQLQESGPTLVEASETLSLTCAVSGDSTAACNSFWGWVRQPPGKGLEWVGSLSHCASYWNRGWTYHNPSLKSRLTLALDTPKNLVFLKLNSVTAADTATYYCARFGGEVLRYTDWPKPAWVDLWGRGTLVTVSS
VL: B1 VL with Y36H, P37A, E47D, S66N, A77T, G81A, S86G
Fold IC50 increase relative to wild-type [1]: 1.5 fold
Fold IC50 increase relative to wild-type [2]: 0.7 fold
Fold IC50 increase relative to wild-type [3]: 0.6 fold
Fold IC50 increase relative to wild-type [4]: 0.7 fold
Fold IC50 increase relative to wild-type [5]: 1.2 fold
Fold IC50 increase relative to wild-type [6]: 1.6 fold
Fold IC50 increase relative to wild-type [7]: 0.2 fold
Fold IC50 increase relative to wild-type [8]: 1 fold
Median IC50 against viruses neutralized with an IC50 <50 µg/ml [9]: 0.67 µg/mL
Fold IC50 increase relative to wild-type [10]: 3.7 fold
Fold IC50 increase relative to wild-type [11]: 0.7 fold
Fold IC50 increase relative to wild-type [12]: 2 fold
Fold IC50 increase relative to wild-type [13]: 1.3 fold
Fold IC50 increase relative to wild-type [14]: 0.8 fold
Fold IC50 increase relative to wild-type [15]: 2.6 fold
Median IC50 against viruses neutralized with an IC50 <50 µg/ml [16]: 0.07 µg/mL
Fold IC50 increase relative to wild-type [17]: 0.7 fold
Fold IC50 increase relative to wild-type [18]: 0.7 fold
Fold IC50 increase relative to wild-type [19]: 0.3 fold
Median IC50 against viruses neutralized with an IC50 <50 µg/ml [20]: 0.02 µg/mL
Fold IC50 increase relative to wild-type [21]: 1.1 fold
Fold IC50 increase relative to wild-type [22]: 1.1 fold
Fold IC50 increase relative to wild-type [23]: 2.1 fold
Fold IC50 increase relative to wild-type [24]: 0.5 fold
Fold IC50 increase relative to wild-type [25]: 0.5 fold
Fold IC50 increase relative to wild-type [26]: 0.4 fold
Polyclonal Transfectant Neutralization Index (well 5114 A19) [27]: 32.2
Primary Neutralization Index (B cell culture well 5114 A19) [27]: 17.1
Fold IC50 increase relative to wild-type [28]: 1 fold
Fold IC50 increase relative to wild-type [29]: 0.8 fold
Median IC50 against viruses neutralized with an IC50 <50 µg/ml [30]: 0.04 µg/mL
Fold IC50 increase relative to wild-type [31]: 0.9 fold
Polyclonal Transfectant Neutralization Index (well 5114 A19) [32]: 136
Primary Neutralization Index (B cell culture well 5114 A19) [32]: 77.5
Fold IC50 increase relative to wild-type [33]: 0.5 fold
Fold IC50 increase relative to wild-type [34]: 2.5 fold
Fold IC50 increase relative to wild-type [35]: 1.3 fold
Fold IC50 increase relative to wild-type [36]: 1.1 fold
Fold IC50 increase relative to wild-type [37]: 1.4 fold
Median IC50 against viruses neutralized with an IC50 <50 µg/ml [38]: 0.01 µg/mL
Fold IC50 increase relative to wild-type [39]: 1 fold

B3: PGT-130 (antibody, V domains shown)
VH: QVQLQESGPGLVKPAETLSLTCSVSGESINTGHYYWGWVRQVPGKGLEWIGHIHYTTAVLHNPSLKSRLTIKIYTLRNQITLRLSNVTAADTAVYHCVRSGGDILYYYEWQKPHWFSPWGPGIHVTVSS
VL: QSALTQPPSASGSLGQSVTISCNGTSSDIGGWNFVSWYQQFPGRAPRLIIFEVNKRPSGVPGRFSGSKSGNSASLTVSGLQSDDEGQYFCSSLFGRWDVVFGGGTKLTVL
Fold IC50 increase relative to wild-type [1]: 1.1 fold
Fold IC50 increase relative to wild-type [2]: 1.3 fold
Fold IC50 increase relative to wild-type [3]: 1 fold
Fold IC50 increase relative to wild-type [4]: 0.6 fold
Fold IC50 increase relative to wild-type [5]: 0.7 fold
Fold IC50 increase relative to wild-type [6]: 0.7 fold
Fold IC50 increase relative to wild-type [7]: 1 fold
Fold IC50 increase relative to wild-type [8]: 0.5 fold
Median IC50 against viruses neutralized with an IC50 <50 µg/ml [9]: 0.04 µg/mL
Fold IC50 increase relative to wild-type [10]: 1000 fold
Fold IC50 increase relative to wild-type [11]: 0.6 fold
Fold IC50 increase relative to wild-type [12]: 2.9 fold
Fold IC50 increase relative to wild-type [13]: 1.7 fold
Fold IC50 increase relative to wild-type [14]: 17 fold
Fold IC50 increase relative to wild-type [15]: > 1000 fold
Median IC50 against viruses neutralized with an IC50 <50 µg/ml [16]: 0.18 µg/mL
Fold IC50 increase relative to wild-type [17]: 1 fold
Fold IC50 increase relative to wild-type [18]: 2.5 fold
Fold IC50 increase relative to wild-type [19]: 0.9 fold
Median IC50 against viruses neutralized with an IC50 <50 µg/ml [20]: 0.65 µg/mL
Fold IC50 increase relative to wild-type [21]: 0.1 fold
Fold IC50 increase relative to wild-type [22]: 0.9 fold
Fold IC50 increase relative to wild-type [23]: 0.9 fold
Fold IC50 increase relative to wild-type [24]: 1.6 fold
Fold IC50 increase relative to wild-type [25]: > 1000 fold
Fold IC50 increase relative to wild-type [26]: 0.6 fold
Polyclonal Transfectant Neutralization Index (well 5147 N6) [27]: 1.05
Primary Neutralization Index (B cell culture well 5147 N6) [27]: 3
Fold IC50 increase relative to wild-type [28]: 0.7 fold
Fold IC50 increase relative to wild-type [29]: 1.7 fold
Median IC50 against viruses neutralized with an IC50 <50 µg/ml [30]: 0.15 µg/mL
Fold IC50 increase relative to wild-type [31]: 1.2 fold
Polyclonal Transfectant Neutralization Index (well 5147 N6) [32]: 1.24
Primary Neutralization Index (B cell culture well 5147 N6) [32]: 19.3
Fold IC50 increase relative to wild-type [33]: 2.6 fold
Fold IC50 increase relative to wild-type [34]: 2.4 fold
Fold IC50 increase relative to wild-type [35]: 3.9 fold
Fold IC50 increase relative to wild-type [36]: 1 fold
Fold IC50 increase relative to wild-type [37]: 0.6 fold
Median IC50 against viruses neutralized with an IC50 <50 µg/ml [38]: 0.09 µg/mL
Fold IC50 increase relative to wild-type [39]: 0.3 fold
